Experimental data: the MegaScale stability set (Tsuboyama et al. 2023)

B1: r11_951_TrROS_Hall (parent)
chain: KKKYVIKVYFEDTGKEVEIEAESKEEALEAAKRLAEELGLKIKKVEIYP

Variants of: B1
Test: folding stability dG (cDNA display proteolysis); higher = more stable
Details: PBS, room temperature

Row | Variant | folding stability dG
1 | KKKYVIKVYFEDTGKEVEIEIESKEEALEAAKRLAEELGLKIKKVEIYP [A21I] | 18.6 kJ/mol
2 | KKKYVIKVYFEDTGKEVEIEAESKEEALEAAKRLAEELGLKLKKVEIYP [I42L] | 18.1 kJ/mol
3 | KKKYVIKVYFEDTGKEVEIEAESKEEALEAAKRLAEELGLKTKKVEIYP [I42T] | 12 kJ/mol
4 | KKKYVIKVYFEDTGKEVEIEAESKEEALEAAKRLAEELGLKCKKVEIYP [I42C] | 14.9 kJ/mol
5 | KKKYVIKVYFEDTGKEVEIEAPSKEEALEAAKRLAEELGLKIKKVEIYP [E22P] | 18.4 kJ/mol
6 | KKKYVIKVYFEDTGKEVEIEAWSKEEALEAAKRLAEELGLKIKKVEIYP [E22W] | 19.4 kJ/mol
7 | KKKYVIKVYFEDTGKEVEIEASSKEEALEAAKRLAEELGLKIKKVEIYP [E22S] | 17.8 kJ/mol
8 | KKKYVIKVYHEDTGKEVEIEAESKEEALEAAKRLAEELGLKIKKVEIYP [F10H] | 10.7 kJ/mol
9 | KKKYVIKVYFEDTGKEVEIEAESKEEALEAAKRLAEELGLKIKKVEIMP [Y48M] | 18.4 kJ/mol
10 | KKKYVIKVYFEDTGKEVEIEAESKEEALEAAKRLAEELGLKIKKVEIIP [Y48I] | 18.6 kJ/mol
11 | KKKYVIKVYFEDTGKEVEIEAESKEEALEAAKRLAEELGLKIKKVEINP [Y48N] | 18.6 kJ/mol
12 | KKKYVIKVYFEDTGKRVEIEAESKEEALEAAKRLAEELGLKIKKVEIYP [E16R] | 17.7 kJ/mol
13 | KKKYVIKVYFEDTGKEVEIEAESKEEALEAAKRLAEELGLKIKKHEIYP [V45H] | 17.1 kJ/mol
14 | KKKYVIKVYFEDTGKEVEIEAESKEEAFEAAKRLAEELGLKIKKVEIYP [L28F] | 18 kJ/mol
15 | KKKYVIKVYFEDTGKEVEEEAESKEEALEAAKRLAEELGLKIKKVEIYP [I19E] | 14.1 kJ/mol
16 | KKKYVIKVYFEDTGKEVETEAESKEEALEAAKRLAEELGLKIKKVEIYP [I19T] | 16.7 kJ/mol
17 | KKKYVFKVYFEDTGKEVEIEAESKEEALEAAKRLAEELGLKIKKVEIYP [I6F] | 19 kJ/mol
18 | KKKYVIKVYFEYTGKEVEIEAESKEEALEAAKRLAEELGLKIKKVEIYP [D12Y] | 19.5 kJ/mol
19 | KKKYVIKVYFEDTGKEVEIEAESKEEALEAAKRLAEALGLKIKKVEIYP [E37A] | 19.5 kJ/mol
20 | KKKYVIKVYFEDTGKEVEIEAESKEEALEAAKRLAEPLGLKIKKVEIYP [E37P] | 12 kJ/mol
21 | KKKYVIKVYFEDTGKEVVIEAESKEEALEAAKRLAEELGLKIKKVEIYP [E18V] | 18.2 kJ/mol
22 | KKKYVIKVYFEDTGKEVGIEAESKEEALEAAKRLAEELGLKIKKVEIYP [E18G] | 17 kJ/mol
23 | KKAYVIKVYFEDTGKEVEIEAESKEEALEAAKRLAEELGLKIKKVEIYP [K3A] | 18.7 kJ/mol
24 | KKQYVIKVYFEDTGKEVEIEAESKEEALEAAKRLAEELGLKIKKVEIYP [K3Q] | 17.9 kJ/mol
25 | KKKYVIVVYFEDTGKEVEIEAESKEEALEAAKRLAEELGLKIKKVEIYP [K7V] | 17.1 kJ/mol
26 | KKKYVIKVYFEDTGKEVEIEAESKEEALEAAKRLAEELGLKILKVEIYP [K43L] | 18.3 kJ/mol
27 | KKKYVIKVYFEDTGKEVEIEAESKEMALEAAKRLAEELGLKIKKVEIYP [E26M] | 18.3 kJ/mol

Row | Variant | folding stability dG
28 | KMKYVIKVYFEDTGKEVEIEAESKEEALEAAKRLAEELGLKIKKVEIYP [K2M] | 19.2 kJ/mol
29 | KHKYVIKVYFEDTGKEVEIEAESKEEALEAAKRLAEELGLKIKKVEIYP [K2H] | 18.9 kJ/mol
30 | KKKYVIKVYFEDTGKEVEIEAESKEEALEAAKRQAEELGLKIKKVEIYP [L34Q] | 16.7 kJ/mol
31 | KKKYVIKVYFEDTGKEVEIEAESYEEALEAAKRLAEELGLKIKKVEIYP [K24Y] | 18.8 kJ/mol
32 | KKKYVIKVYFEDTGLEVEIEAESKEEALEAAKRLAEELGLKIKKVEIYP [K15L] | 17.9 kJ/mol
33 | KKKYVIKVYFEDTGMEVEIEAESKEEALEAAKRLAEELGLKIKKVEIYP [K15M] | 17.4 kJ/mol
34 | KKKYVIKVYFEDTGKEVEIEAESKEEALMAAKRLAEELGLKIKKVEIYP [E29M] | 20 kJ/mol
35 | KKKYVIKVYFEDTGKEVEIEAESKEEALEAAKRLAEELGLGIKKVEIYP [K41G] | 17 kJ/mol
36 | KKKYVIKVYFEDTGKEVEIEAESKEEALEAACRLAEELGLKIKKVEIYP [K32C] | 17.7 kJ/mol
37 | KKKYLIKVYFEDTGKEVEIEAESKEEALEAAKRLAEELGLKIKKVEIYP [V5L] | 17.3 kJ/mol
38 | VKKYVIKVYFEDTGKEVEIEAESKEEALEAAKRLAEELGLKIKKVEIYP [K1V] | 18.9 kJ/mol
39 | KKKYVIKVYFQDTGKEVEIEAESKEEALEAAKRLAEELGLKIKKVEIYP [E11Q] | 20.1 kJ/mol
40 | KKKYVIKVYFCDTGKEVEIEAESKEEALEAAKRLAEELGLKIKKVEIYP [E11C] | 19.4 kJ/mol
41 | KKKYVIKVYFGDTGKEVEIEAESKEEALEAAKRLAEELGLKIKKVEIYP [E11G] | 18.8 kJ/mol
42 | KKKYVIKVYFHDTGKEVEIEAESKEEALEAAKRLAEELGLKIKKVEIYP [E11H] | 20.2 kJ/mol
43 | KKKYVIKVYFEDTGKEVEIEAESKEEALEAAKFLAEELGLKIKKVEIYP [R33F] | 18.3 kJ/mol
44 | KKKYVIKVYFEDTGKEVEIEAEEKEEALEAAKRLAEELGLKIKKVEIYP [S23E] | 17.6 kJ/mol
45 | KKKNVIKVYFEDTGKEVEIEAESKEEALEAAKRLAEELGLKIKKVEIYP [Y4N] | 12.2 kJ/mol
46 | KKKYVIKVYFEDTGKEVEIEAESKEEALEAAKRLAEELGLKIKKVNIYP [E46N] | 17.5 kJ/mol
47 | KKKYVIKVYFEDTGKEVEIEAESKEEALEAAKRLAEELGLKIKKVAIYP [E46A] | 18.1 kJ/mol
48 | KKKYVIKVYFEDTGKEVEIEAESKEEALEAAKRLAEELGLKIKKVSIYP [E46S] | 18.1 kJ/mol
49 | KKKYVIKVYFEDNGKEVEIEAESKEEALEAAKRLAEELGLKIKKVEIYP [T13N] | 19.2 kJ/mol
50 | KKKYVIKVYFEDKGKEVEIEAESKEEALEAAKRLAEELGLKIKKVEIYP [T13K] | 18.7 kJ/mol
51 | KKKYVIKVYFEDDGKEVEIEAESKEEALEAAKRLAEELGLKIKKVEIYP [T13D] | 17.2 kJ/mol
52 | KKKYVIKGYFEDTGKEVEIEAESKEEALEAAKRLAEELGLKIKKVEIYP [V8G] | 10.5 kJ/mol
53 | KKKYVIKYYFEDTGKEVEIEAESKEEALEAAKRLAEELGLKIKKVEIYP [V8Y] | 17.7 kJ/mol
